# T1: HA-tagged SPATIAL (Mus musculus, UniProt Q7TSD4)
# T1 construct: expressed in transfected cells; host or cells: 293T human kidney epithelial cells, calcium phosphate transfection
# T1 sequence (Q7TSD4 with tags, fused parts or gaps isoform Q7TSD4-6 limits assumed): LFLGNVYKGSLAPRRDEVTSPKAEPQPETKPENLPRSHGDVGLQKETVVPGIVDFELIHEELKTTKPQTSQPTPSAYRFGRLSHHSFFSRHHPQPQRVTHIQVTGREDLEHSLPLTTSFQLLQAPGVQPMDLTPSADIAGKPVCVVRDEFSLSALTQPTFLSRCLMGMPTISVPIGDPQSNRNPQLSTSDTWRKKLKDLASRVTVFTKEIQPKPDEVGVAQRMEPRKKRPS
# T1 sequence (Q8C878 224-462 P243X partner limits assumed): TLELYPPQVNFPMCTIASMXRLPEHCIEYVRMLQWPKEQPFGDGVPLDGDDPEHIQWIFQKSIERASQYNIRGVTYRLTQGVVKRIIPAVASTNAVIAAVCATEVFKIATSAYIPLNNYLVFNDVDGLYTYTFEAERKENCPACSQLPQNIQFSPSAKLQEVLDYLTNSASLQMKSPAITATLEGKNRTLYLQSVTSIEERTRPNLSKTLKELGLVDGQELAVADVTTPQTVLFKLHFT
# T2: GST-SPATIAL(L) (Mus musculus, UniProt Q7TSD4)
# T2 construct: made in house
# T2 sequence (Q7TSD4 with tags, fused parts or gaps isoform Q7TSD4-6 limits assumed): T1 sequence (Q7TSD4 with tags, fused parts or gaps isoform Q7TSD4-6 limits assumed)
# B1: SPATIAL-EGFP: SPATIAL isoform fused to enhanced green fluorescent protein, expressed from pEGFPN1 (protein)
# chain: T1 sequence (Q7TSD4 with tags, fused parts or gaps isoform Q7TSD4-6 limits assumed)
# modifications: left off: large carriers
# notes: SPATIAL isoform fused to enhanced green fluorescent protein, expressed from pEGFPN1
# B2: Myc-346: Myc-tagged Uba3-clone 346, carboxyl terminus of Uba3, residues 203 to 441 of SEQ ID NO: 6 (protein, listed as Mus musculus)
# chain: TLELYPPQVNFPMCTIASMPRLPEHCIEYVRMLQWPKEQPFGDGVPLDGDDPEHIQWIFQKSIERASQYNIRGVTYRLTQGVVKRIIPAVASTNAVIAAVCATEVFKIATSAYIPLNNYLVFNDVDGLYTYTFEAERKENCPACSQLPQNIQFSPSAKLQEVLDYLTNSASLQMKSPAITATLEGKNRTLYLQSVTSIEERTRPNLSKTLKELGLVDGQELAVADVTTPQTVLFKLHFT
# modifications: not fully specified (N-terminus); also: Myc tag
# Experiments:
# 293T cells [1] = experiment: Propidium iodide staining for apoptosis; type: cell-based, human; conditions: 24 to 72 hours after transfection
# Text: Propidium iodide is a commonly known fluorescent compound, which intercalates into double-stranded nucleic acids. It is excluded by viable cells but can penetrate cell membranes of dying or dead cells. Thus, apoptotic cells may be identified by staining (and, in particular, nuclear staining) with propidium iodide.
# Approximately 0.5-1.0×10^6 293T cells were transfected with SPATIAL-EGFP using either calcium phosphate (Mammalian Transfection Kit; Stratagene, La Jolla, Calif.) or Lipofectanine (Invitrogen, Rockville, Md.) in accordance with the manufacturers' instructions. Twenty-four (24) to 72 hours after transfection, the transfected cells were sorted. Approximately 1-5×10^5 sorted cells were resuspended in a solution contain 50 μg/ml propidium iodine, 0.1% sodium citrate and 0.1% Triton X-100 and incubated overnight to lyse the cells and stain the nuclei. Then, the sample was analyzed by flow cytometry to identify sub-diploid amounts of DNA which indicates cell death via apoptosis.
# 293T cells [2] = experiment: DiI cell division analysis by FACS; type: cell-based, human; conditions: 4-day period, FIG. 7
# Method: 293T cells were transfected with expression plasmid for EGFP alone (pEGFPN1; Clontech) or EGFP-SPATIAL(L). Twenty four (24) hours later, transfected cells were reacted with 3H-Indolium, 2-[3(1,3-dihydro-3,3-dimethyl-1-octacdecyl-2H-indol-2-ylidene)-propenyl]-3,3-dimethyl-octacdecyl-, perchlorate (DiI; Molecular Probes, Eugene, Oreg.) a fluorescent compound that […] binds to lipids. EGFP-positive and/or EGFP-negative cells were analyzed by FACS on the day after transfection and 1 hour after DiI labeling (Day 0) and four days after transfection (Day 4) as indicated.
# To directly examine division of SPATIAL EGFP transfected cells, the lipophilic dye, 3H-Indolium, 2-[3-(1,3-dihydro-3,3-dimethyl-1-octacdecyl-2H-indol-2-ylidene) 1-propenyl]-3,3-dimethyl-1-octacdecyl-, perchlorate (DiI). DiI becomes highly fluorescent when it interacts with cell membranes and is equally portioned to each daughter cell during cell division. This property has been used to monitor cell divisions based on the reduction of dye in successive generations, which can be monitored using FACS analysis (Huang et al., Blood, 94(8):2595-2604, 1999). DiI was chosen so that the generational analysis could be done on EGFP-positive cells.
# Hb12 cells = experiment: Bcl-2 expression assay, SPATIAL-EGFP transfected Bcl-2 expressing thymocyte cell line; type: cell-based, mouse; conditions: transient transfection by electroporation
# Method: (§1) The mouse thymocyte cell line Wehi 7.2 and its variant Wbcl-2, which over expresses bcl-2, were maintained in DMEM supplemented with 10% heat-inactivated FBS, 2 mM glutamine, 100 U/ml penicillin, and 0.1 mg/ml streptomycin. Cells were grown at 37° C. in a humidified atmosphere with 5% CO2.
# (§2) Transient transfections were performed using either lipids (Lipofectamine 2000 or FreeStyle 293 Expression System, each supplied by Invitrogen, Rockville, Md.) or calcium phosphate (Mammalian Transfection Kit; Stratagene, La Jolla, Calif.) or electroporation. Manufacturer instructions were followed for lipid and calcium phosphate transfections. For electroporation, the following procedure was used: Before transfection, Wehi cell and Wbcl-2 cells were counted and suspended in fresh complete DMEM without antibiotics at 5×10^5 cells/ml in a 15 cm dish. On the day of transfection, the cells were washed with PBS twice and were suspended in serum free DMEM at 6.25×10^6 cells/mL Aliquots of 800 μl cell suspension were transferred to a 4 mm electroporation cuvette and 10 μg of plasmid DNA solution was added. After 10 minutes incubation on ice, the cells were electroporated under the condition of 310 V, 725 ohms resistance, and 1050 μF capacitance. The transfected cells were incubated on ice for 10 minutes and suspended in complete DMEM in 10 cm dishes at the density of 7.5×10^4 viable cells/ml. […]
# 293T cells [3] = experiment: Cell growth analysis: number of fluorescent (EGFP-positive) cells after transient transfection; type: cell-based, human
# Method: Human embryonic kidney (293T) cells were maintained in DMEM supplemented with 10% heat-inactivated FBS, 2 mM glutamine, 100 U/ml penicillin, and 0.1 mg/ml streptomycin Cells were grown at 37° C. in a humidified atmosphere with 5% CO2.
# The day before transfection, the cells were trypsinized (if needed), counted and plated in a 24-well plate at the density of 7.5×10^4 cells per well with 0.5 ml of their normal growth medium containing serum without antibiotics. On the day of transfection, cells were transfected according to the recommended protocol using 1.0 μg of each plasmid DNA and 3 μl of Lipofectamine 2000 in each well. The cells were kept at 37° C. in a CO2 incubator for 24 hours. […] The number of EGFP-positive cells was calculated using fluorescence-activated cytometry (FACS) analysis at various time points after transfection.
# In representative experiments, approximately 0.5-1×10^6 293T cells were transiently transfected with approximately 1-10 μg of either SPATIAL EGFP expression vector or EGFP expression vector by calcium phosphate precipitation using the Mammalian Transfection Kit (Stratagene) in accordance with the manufacturer's instructions. The number of fluorescent EGFP- or SPATIAL-EGFP-transfected cells was monitored over time using flow cytometry or microscopic examination. […]
# caspase = experiment: Caspase activation flow cytometry assay (PhiPhi Lux); type: cell-based; conditions: SPATIAL-EGFP transfected cells
# Text: Caspase activation plays a central role in the execution of apoptosis (e.g., Budihardjo et al., Ann. Rev. Cell. Dev. Biol., 15:269-90, 1999).
# Wehi7.2 cells = experiment: Bcl-2 expression assay, SPATIAL-EGFP transfected thymocyte cell line; type: cell-based, mouse; conditions: transient transfection by electroporation
# Method: as §1, §2
# HA-tagged SPATIAL = target: T1, HA-tagged SPATIAL; experiment: Co-immunoprecipitation of SPATIAL and Uba3 from transfected 293T cells; type: binding; conditions: only in samples that contained HA-tagged SPATIAL, FIG. 15
# Method: Expression vectors encoding Myc-346 and HA-tagged SPATIAL were transfected alone or in combination into 293T cells by calcium phosphate precipitation (Mammalian Transfection Kit; Stratagene, La Jolla, Calif.) in accordance with manufacturer's instructions. Total protein lysates were prepared and immunoprecipitated with an anti-HA antibody, as described in Ausubel et al., Current Protocols in Molecular Biology, Greene Publishing Associates, updated November 2003, Chapter 20, Analysis of Protein Interactions, Unit 20.5, Detection of Protein-Protein Interaction by Coprecipitation. The immunoprecipitated proteins were separated by SDS-PAGE and transferred to a membrane for Western blotting using an anti-Myc antibody.
# GST-SPATIAL(L) = target: T2, GST-SPATIAL(L); experiment: GST pulldown assay with GST-SPATIAL long isoform; type: binding; conditions: 35S-methionine labeled in vitro translated protein
# Method: Eighteen cDNA clones identified in the yeast two-hybrid system were tested in an in vitro glutathione-S-transferase (GST) pulldown assay, as described in Ausubel et al., Current Protocols in Molecular Biology, Greene Publishing Associates, updated November 2003, Chapter 20, Analysis of Protein Interactions, Unit 20.2, Affinity Purification of Proteins Binding to GST Fusion Proteins.
# Briefly, a GST-SPATIAL fusion construct was produced by cloning SPATIAL cDNA(s) into pGEx5X1 expression vector using standard molecular cloning techniques. GST or GST-SPATIAL fusion protein were expressed in 1-1000 ml bacterial cultures grown for 3-4 hours until OD600 reached 0.5. Then, plasmid expression was induced for 1.5-4 hours by the addition of ITPG to a final concentration of 0.11 mM. GST or GST-fusion proteins were purified using glutathione-Sepharose beads as described in Ausubel et al., Current Protocols in Molecular Biology, Greene Publishing Associates, updated November 2003, Chapter 20, Analysis of Protein Interactions, Unit 20.2, Affinity Purification of Proteins Binding to GST Fusion Proteins.
# A coupled in vitro transcription and translation system (Promega) was used according to the manufacturer's instructions to produce radiolabeled protein from cDNAs to be tested. Radiolabeled proteins were mixed with either purified GST or GST-SPATIAL. Then, GST-containing protein complexes were purified by centrifugation from the reaction mixtures using glutathione-coated Sepharose beads. Bound proteins were eluted from the beads with SDS-PAGE loading buffer heated to 72-85° C., separated on polyacrylamide gels, and visualized by autoradiography. Specific interactions between GST-SPATIAL and in vitro translated proteins were indicated by the presence of a radiolabeled in vitro translated protein in the GST-SPATIAL-containing samples, but not in the GST-alone samples.
# GST pulldown assays were performed as described in Example 9 using GST-SPATIAL(L) and GST-SPATIAL(S) and each of the Uba3 mutants described in this example.
Molecule,apoptosis based on nuclear morphology of propidium iodide stained cells (293T cells [1]),cell division of EGFP-positive cells (293T cells [2]),cell growth of transfected cells (Hb12 cells),"increase in the number of fluorescent cells (293T cells [3]; four day period post-transfection, FIG. 6)","increase in the number of fluorescent transfected cells (293T cells [3]; two-week period post-transfection, G418 selection)",caspase activation (caspase),cell growth of transfected cells (Wehi7.2 cells),co-immunoprecipitation by anti-HA antibody (HA-tagged SPATIAL),interaction with GST-SPATIAL(L) (GST-SPATIAL(L))
B1,no evidence of apoptosis,effectively blocked the majority of transfected cells from dividing,profound suppression of cell growth,no increase,2-3 fold,No caspase activation was detected,profound suppression of cell growth,–,–
B2,–,–,–,–,–,–,–,reproducibly immunoprecipitated,specifically interacted

# Source: patent US20070248589A1 (GOVERNMENT OF THE UNITED STATES OF AMERICA AS REPRESENTED …, published 2007)
